Experiments:
[1] = biological target: T1, GNYTDRRFI test peptide
T1 chain: GNYTDRRFI

[2] = biological target: T2, AVLSNVMFI (negative control test peptide)
T2 chain: AVLSNVMFI

[3] = biological target: T3, phage isolate 5-A08 display polypeptide
T3 chain: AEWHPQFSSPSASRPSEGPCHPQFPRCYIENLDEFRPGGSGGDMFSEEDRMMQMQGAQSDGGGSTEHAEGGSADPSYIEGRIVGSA

[4] = biological target: T4, GDDDDK-β naphthylamine
T4 chain: GDDDDK

[5] = biological target: T5, GDDDDKIYV (positive control test peptide)
T5 chain: GDDDDKIYV

[6] = biological target: T6, DINDDRSLF test peptide
T6 chain: DINDDRSLF

[7] = biological target: T7, phage isolate 5-B05 display polypeptide
T7 chain: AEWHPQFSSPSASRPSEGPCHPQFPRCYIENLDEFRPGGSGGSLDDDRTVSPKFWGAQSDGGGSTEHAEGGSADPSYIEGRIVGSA

[8] = biological target: T8, GNYTDRMFI test peptide
T8 chain: GNYTDRMFI

[9] = biological target: T9, NKAKDRMFI test peptide
T9 chain: NKAKDRMFI

[10] = biological target: T10, phage isolate 5-H04 display polypeptide
T10 chain: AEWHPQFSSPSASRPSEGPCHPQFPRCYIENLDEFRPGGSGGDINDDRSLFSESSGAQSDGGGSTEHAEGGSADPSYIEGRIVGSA

[11] = biological target: T11, GNYTDRYFI test peptide
T11 chain: GNYTDRYFI

[12] = biological target: T12, phage isolate 5-H11 display polypeptide ((Asp)4-Lys-containing recognition sequence)
T12 chain: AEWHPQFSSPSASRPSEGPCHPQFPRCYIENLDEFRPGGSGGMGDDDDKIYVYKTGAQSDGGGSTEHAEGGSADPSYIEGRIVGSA

B1: recombinant light chain enterokinase (Novagen, Madison, Wis.) (protein)
chain: IVGGSDSREGAWPWVVALYFDDQQVCGASLVSRDWLVSAAHCVYGRNMEPSKWKAVLGLHMASNLTSPQIETRLIDQIVINPHYNKRRKNNDIAMMHLEMKVNYTDYIQPICLPEENQVFPPGRICSIAGWGALIYQGSTADVLQEADVPLLSNEKCQQQMPEYNITENMVCAGYEAGGVDSCQGDSGGPLMCQENNRWLLAGVTSFGYQCALPNRPGVYARVPRFTEWIQSFLH
With B1 the Cleavage Rate [1] was 0.18 nmol/min, the “cleavage by 20U recombinant light chain enterokinase, 36-48 hrs, HPLC” value (shortened to “cleavage … HPLC”) [1] was “all digestions were carried to completion (except for the negative control which was not cleaved at all)” and the rate relative to standard substrate (fold of standard substrate) [1] was 0.4. The “cleavage … HPLC” value [2] was “No cleavage occurred with the negative control peptide (SEQ ID NO:198)”, the “enterokinase cleavage rate, phage ELISA (release of streptavidin-bound phage at 30 nM or 130 nM enterokinase)” value [3] was “the cleavage rate for ... 5-H11 (SEQ ID NO:194) was slower than for at least three of the other isolates, i.e., 5-A08 (SEQ ID NO:137), 5-B05 (SEQ ID NO:145) and 5-H04 (SEQ ID NO:188)” and the rate relative to standard substrate (fold of standard substrate) [4] was 1. The “cleavage … HPLC” value [5] was “all digestions were carried to completion (except for the negative control which was not cleaved at all)”, the rate relative to standard substrate (fold of standard substrate) [5] was 0.7 and the ratio (Va/Vb) against reference peptide GDDDDK-βNA, equal to the ratio of kcat/Km [5] was 1. The Cleavage Rate [6] was 1.43 nmol/min, the “cleavage … HPLC” value [6] was “all digestions were carried to completion (except for the negative control which was not cleaved at all)” and the rate relative to standard substrate (fold of standard substrate) [6] was 3.1. The ratio (Va/Vb) against reference peptide GDDDDK-βNA, equal to the ratio of kcat/Km [6] was 30, the “enterokinase cleavage rate, phage ELISA (release of streptavidin-bound phage at 30 nM or 130 nM enterokinase)” value [7] was “the cleavage rate for ... 5-H11 (SEQ ID NO:194) was slower than for at least three of the other isolates, i.e., 5-A08 (SEQ ID NO:137), 5-B05 (SEQ ID NO:145) and 5-H04 (SEQ ID NO:188)” and the Cleavage Rate [8] was 0.81 nmol/min. The “cleavage … HPLC” value [8] was “all digestions were carried to completion (except for the negative control which was not cleaved at all)”, the rate relative to standard substrate (fold of standard substrate) [8] was 1.8 and the ratio (Va/Vb) against reference peptide GDDDDK-βNA, equal to the ratio of kcat/Km [8] was 3.5. The Cleavage Rate [9] was 0.26 nmol/min, the “cleavage … HPLC” value [9] was “all digestions were carried to completion (except for the negative control which was not cleaved at all)” and the rate relative to standard substrate (fold of standard substrate) [9] was 0.6. The “enterokinase cleavage rate, phage ELISA (release of streptavidin-bound phage at 30 nM or 130 nM enterokinase)” value [10] was “isolate 5-H04 (SEQ ID NO:188) shown in Table 5 was the most readily cut”, the Cleavage Rate [11] was 0.24 nmol/min and the “cleavage … HPLC” value [11] was “all digestions were carried to completion (except for the negative control which was not cleaved at all)”. For the same protein, the rate relative to standard substrate (fold of standard substrate) [11] was 0.5 and the “enterokinase cleavage rate, phage ELISA (release of streptavidin-bound phage at 30 nM or 130 nM enterokinase)” value [12] was “the cleavage rate for the (Asp)4-Lys-containing recognition sequence 5-H11 (SEQ ID NO:194) was slower than for at least three of the other isolates”.

— patent publication US20050158838
